The values below come from US9383366B2, “Blue fluorescent protein and methods of use thereof” (WiSys Technology Foundation, Inc., priority 2013, dated 2016).

Data set [1] can be described thus: Spectral properties (absorption and fluorescence emission) of Sandercyanin protein. It is filed as physicochemical.
A further data set deals with hydra. In words: Injection of Sandercyanin protein into hydra, fluorescence localization. The format is in vivo. The settings on record: injected into hydra. The text has this: We are currently imploring the localization of Sandercyanin in model organisms.
The conditions of data set [2]: on excitation at 380 nm and 630 nm; cited from earlier work.
The mark [3] stands for this setting: band maximum used for Stokes shift.

B1: Sandercyanin protein: native blue fluorescent bili-binding lipocalin protein from walleye mucus, SEQ ID NO: 1 (protein)
chain: QFIKPGRCPKPAVQEDFDAARYLGVWYDIQRLPNKFQKGECATATYSLSPGVGFSVFNRERLANGTIKSVIGSAIAEDPCEPAKLQFFHENAAPVPYWVLSTDYDNYALVYSCINLGASHAAYASIVSRQPTLPEETIKKLQGTMSSFGVGVDTLLTTNQDAAYCSAMNQ
modifications: Sandercyanin
In the case of B1, in data set [1] (setting [3]), the absorption was found to be 375 nm and the emission stood at 675 nm. Besides, the Stokes shift in data set [1] (difference between absorption and emission band maxima) is approximately 300 nm. For the same molecule, the fluorescence after injection result in the data set with hydra is “showed fluorescence on the surface of tentacles”. Besides, the emission maxima in data set [2] is 678 nm.
